Reference: patent publication US20090098123A1 (ROCKEFELLER UNIVERSITY, published 2009)

How the values were obtained:
[1] = molecular target: human CD81 (human) (UniProt P60033); test: cell-based or functional assay
[2] = molecular target: CLDN1 F10x3 (GFP-CLDN1 with a triple FLAG epitope inserted in EL1 at position F10) (human) (UniProt O95832); test: cell-based or functional assay
[3] = molecular target: GFP-CLDN1 with a single FLAG epitope inserted in EL1 at position F6 (human) (UniProt O95832); test: cell-based or functional assay
[4] = molecular target: GFP-CLDN1 with a single FLAG epitope inserted in EL1 at position F8 (human) (UniProt O95832); test: cell-based or functional assay
[5] = molecular target: GFP-CLDN1 with a single FLAG epitope inserted in EL1 at position F9 (human) (UniProt O95832); test: cell-based or functional assay
[6] = molecular target: T1, J6/JFH HCVcc (cell culture infectious HCV particles of the chimeric genotype 2a J6/JFH genome) (Hepatitis C virus genotype 2a, isolate …, UniProt P26660 192-383; P26660 384-750); test: HCVcc bound to transduced CHO cells 2 h at 37 C; cell-associated HCV RNA by real-time RT-PCR
T1 construct: A whole enveloped virion, not a single protein

JS81 anti-CD81 antibody (BD Pharmingen)
time after the temperature shift at which antibody addition still gives half-maximal inhibition of HCVpp infection (synchronized infection) [1]: 18 min

anti-FLAG M2 monoclonal antibody (Sigma)
time after the temperature shift at which antibody addition still gives half-maximal inhibition of HCVpp infection (synchronized infection) [2]: 73 min
reduction of HCVpp permissiveness (luciferase) of 293T cells expressing the clone, in the presence of antibody [3]: < 90%
reduction of HCVpp permissiveness (luciferase) of 293T cells expressing the clone, in the presence of antibody [4]: < 45%
reduction of HCVpp permissiveness (luciferase) of 293T cells expressing the clone, in the presence of antibody [5]: < 62%

B1: human CLDN1 (Claudin-1), wild type (receptor)
chain: MANAGLQLLGFILAFLGWIGAIVSTALPQWRIYSYAGDNIVTAQAMYEGLWMSCVSQSTGQIQCKVFDSLLNLSSTLQATRALMVVGILLGVIAIFVATVGMKCMKCLEDDEVQKMRMAVIGGAIFLLAGLAILVATAWYGNRIVQEFYDPMTPVNARYEFGQALFTGWAAASLCLLGGALLCCSCPRKTTSYPTPRPYPKPAPSSGKDYV
notes: also called wild-type CLDN1
binding result [6]: no binding (tested: MOI ~0.5)

B2: human CD81 (receptor)
chain: MGVEGCTKCIKYLLFVFNFVFWLAGGVILGVALWLRHDPQTTNLLYLELGDKPAPNTFYVGIYILIAVGAVMMFVGFLGCYGAIQESQCLLGTFFTCLVILFACEVAAGIWGFVNKDQIAKDVKQFYDQALQQAVVDDDANNAKAVVKTFHETLDCCGSSTLTALTTSVLKNNLCPSGSNIISNLFKEDCHQKIDDLFSGKLYLIGIAAIVVAVIMIFEMILSMVLCCGIRNSSVY
notes: whole, on cells
binding result [6]: no binding (tested: MOI ~0.5)
